From patent publication US20170247448A1 (INTRINSIC LIFESCIENCES, published 2017)

Key:
MAb 583 = target: T1, MAb 583; assay: C-ELISA with purified MAb 583; competitor NT-biotin hepcidin-25
T1 construct: Murine monoclonal, Protein A purified

[1] = target: T2, BAP070-01 (human-mouse chimeric MAb 583); assay: C-ELISA on goat anti-human Fc coat, hepcidin titrated against a labelled tracer not named for this figure
T2 construct: used as CHO cell supernatant; also called BAP070-1

BAP070-hum01 [2] = target: T3, BAP070-hum01; assay: as above
T3 construct: Expressed as soluble IgG1 in CHO cells, tested as supernatant; The entries stop inside FR4 (...WGQG / ...FG); also called humanized hit 1

BAP070-hum02 [3] = target: T4, BAP070-hum02; assay: as above
T4 construct: Expressed as soluble IgG1 in CHO cells, tested as supernatant; The entries stop inside FR4

BAP070-hum03 [4] = target: T5, BAP070-hum03; assay: as above
T5 construct: Expressed as soluble IgG1 in CHO cells, tested as supernatant; The entries stop inside FR4

BAP070-hum04 [5] = target: T6, BAP070-hum04; assay: as above
T6 construct: Expressed as soluble IgG1 in CHO cells, tested as supernatant; The entries stop inside FR4

BAP070-hum05 [6] = target: T7, BAP070-hum05; assay: as above
T7 construct: Expressed as soluble IgG1 in CHO cells, tested as supernatant; The entries stop inside FR4

BAP070-hum06 [7] = target: T8, BAP070-hum06; assay: as above
T8 construct: Expressed as soluble IgG1 in CHO cells, tested as supernatant; The entries stop inside FR4

BAP070-hum01 [8] = target: T3, BAP070-hum01; assay: C-ELISA: goat anti-human Fc coated plate, antibody captured (30 ng/well per title of FIG. 20D), unlabelled hepcidin titrated (ng/well per axis of FIG. 20D) against a labelled tracer not named for this figure; OD = tracer left on the antibody
BAP070-hum02 [9] = target: T4, BAP070-hum02; assay: as above
BAP070-hum03 [10] = target: T5, BAP070-hum03; assay: as above
BAP070-hum05 [11] = target: T7, BAP070-hum05; assay: as above
[12] = target: T2, BAP070-01 (human-mouse chimeric MAb 583); assay: C-ELISA: goat anti-human Fc coated plate, antibody captured, unlabelled hepcidin titrated against a labelled tracer not named for this figure; the EC50 row has 7 cells under 8 columns and is assigned in order to the 7 antibodies with human Fc
BAP070-hum01 [13] = target: T3, BAP070-hum01; assay: as above
BAP070-hum02 [14] = target: T4, BAP070-hum02; assay: as above
BAP070-hum03 [15] = target: T5, BAP070-hum03; assay: as above
BAP070-hum04 [16] = target: T6, BAP070-hum04; assay: as above
BAP070-hum05 [17] = target: T7, BAP070-hum05; assay: as above
BAP070-hum06 [18] = target: T8, BAP070-hum06; assay: as above

T5 sequence (VH, as listed by the source, chain 1 of 2): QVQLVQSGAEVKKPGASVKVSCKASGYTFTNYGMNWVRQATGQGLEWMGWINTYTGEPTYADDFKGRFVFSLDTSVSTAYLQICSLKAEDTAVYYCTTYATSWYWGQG
T5 sequence (VL, as listed by the source, chain 2 of 2): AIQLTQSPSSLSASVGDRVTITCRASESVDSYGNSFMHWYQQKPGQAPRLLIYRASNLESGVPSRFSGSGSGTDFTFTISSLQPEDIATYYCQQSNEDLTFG
T4 sequence (VH, as listed by the source, chain 1 of 2): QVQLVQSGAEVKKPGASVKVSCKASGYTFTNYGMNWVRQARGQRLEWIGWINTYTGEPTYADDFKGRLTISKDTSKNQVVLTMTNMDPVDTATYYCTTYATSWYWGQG
T4 sequence (VL, as listed by the source, chain 2 of 2): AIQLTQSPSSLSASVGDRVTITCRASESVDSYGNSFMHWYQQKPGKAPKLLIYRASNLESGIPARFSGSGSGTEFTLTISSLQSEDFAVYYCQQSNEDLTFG
T3 sequence (VL, as listed by the source, chain 2 of 2): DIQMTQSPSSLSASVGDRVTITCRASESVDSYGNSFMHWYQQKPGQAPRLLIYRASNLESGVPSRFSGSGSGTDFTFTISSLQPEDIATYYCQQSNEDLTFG
T7 sequence (VH, as listed by the source, chain 1 of 2): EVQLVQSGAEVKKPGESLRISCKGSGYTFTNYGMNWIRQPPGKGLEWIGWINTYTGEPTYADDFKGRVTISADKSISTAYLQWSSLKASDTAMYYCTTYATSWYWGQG
T2 sequence (VH, as listed by the source, chain 1 of 2): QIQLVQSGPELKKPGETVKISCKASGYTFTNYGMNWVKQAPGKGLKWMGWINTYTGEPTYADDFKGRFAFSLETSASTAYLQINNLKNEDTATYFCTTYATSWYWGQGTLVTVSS
T2 sequence (VL, as listed by the source, chain 2 of 2): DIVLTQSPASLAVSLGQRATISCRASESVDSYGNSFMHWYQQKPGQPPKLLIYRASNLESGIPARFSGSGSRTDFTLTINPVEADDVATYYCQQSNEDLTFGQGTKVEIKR
T6 sequence (VL, as listed by the source, chain 2 of 2): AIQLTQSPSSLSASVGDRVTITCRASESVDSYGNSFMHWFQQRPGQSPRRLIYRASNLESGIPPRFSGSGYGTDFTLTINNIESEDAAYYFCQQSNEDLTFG
T1 sequence (VH, as listed by the source, chain 1 of 2): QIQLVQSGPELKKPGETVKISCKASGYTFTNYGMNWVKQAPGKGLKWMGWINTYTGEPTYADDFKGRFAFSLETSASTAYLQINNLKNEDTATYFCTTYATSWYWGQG
T1 sequence (VL, as listed by the source, chain 2 of 2): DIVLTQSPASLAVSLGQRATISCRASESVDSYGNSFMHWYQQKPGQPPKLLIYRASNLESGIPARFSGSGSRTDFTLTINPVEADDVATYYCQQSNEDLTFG

- EC50 (MAb 583): ≤ 0.005 µg/mL
- IC50 (read off the curve) [1]: ~2 ng/well
- IC50 (read off the curve) (BAP070-hum01 [2]): ~2 ng/well
- IC50 (read off the curve) (BAP070-hum02 [3]): ~2 ng/well
- IC50 (read off the curve) (BAP070-hum03 [4]): ~2 ng/well
- IC50 (read off the curve) (BAP070-hum04 [5]): ~2 ng/well
- IC50 (read off the curve) (BAP070-hum05 [6]): ~2 ng/well
- IC50 (read off the curve) (BAP070-hum06 [7]): ~2 ng/well
- OD450 at 0.000 ng/well hepcidin (BAP070-hum01 [8]): 0.408
- OD450 at 0.137 ng/well hepcidin (BAP070-hum01 [8]): 0.424
- OD450 at 0.412 ng/well hepcidin (BAP070-hum01 [8]): 0.415
- OD450 at 1.235 ng/well hepcidin (BAP070-hum01 [8]): 0.311
- OD450 at 3.704 ng/well hepcidin (BAP070-hum01 [8]): 0.166
- OD450 at 11.111 ng/well hepcidin (BAP070-hum01 [8]): 0.0849
- OD450 at 33.333 ng/well hepcidin (BAP070-hum01 [8]): 0.0336
- OD450 at 100.000 ng/well hepcidin (BAP070-hum01 [8]): 0.0144
- OD450 at 0.000 ng/well hepcidin (BAP070-hum02 [9]): 0.812
- OD450 at 0.137 ng/well hepcidin (BAP070-hum02 [9]): 0.844
- OD450 at 0.412 ng/well hepcidin (BAP070-hum02 [9]): 0.814
- OD450 at 1.235 ng/well hepcidin (BAP070-hum02 [9]): 0.539
- OD450 at 3.704 ng/well hepcidin (BAP070-hum02 [9]): 0.279
- OD450 at 11.111 ng/well hepcidin (BAP070-hum02 [9]): 0.125
- OD450 at 33.333 ng/well hepcidin (BAP070-hum02 [9]): 0.0475
- OD450 at 100.000 ng/well hepcidin (BAP070-hum02 [9]): 0.0189
- OD450 at 0.000 ng/well hepcidin (BAP070-hum03 [10]): 2.13
- OD450 at 0.137 ng/well hepcidin (BAP070-hum03 [10]): 2.1
- OD450 at 0.412 ng/well hepcidin (BAP070-hum03 [10]): 1.96
- OD450 at 1.235 ng/well hepcidin (BAP070-hum03 [10]): 1.48
- OD450 at 3.704 ng/well hepcidin (BAP070-hum03 [10]): 0.653
- OD450 at 11.111 ng/well hepcidin (BAP070-hum03 [10]): 0.281
- OD450 at 33.333 ng/well hepcidin (BAP070-hum03 [10]): 0.0983
- OD450 at 100.000 ng/well hepcidin (BAP070-hum03 [10]): 0.0359
- OD450 at 0.000 ng/well hepcidin (BAP070-hum05 [11]): 0.972
- OD450 at 0.137 ng/well hepcidin (BAP070-hum05 [11]): 0.917
- OD450 at 0.412 ng/well hepcidin (BAP070-hum05 [11]): 0.88
- OD450 at 1.235 ng/well hepcidin (BAP070-hum05 [11]): 0.625
- OD450 at 3.704 ng/well hepcidin (BAP070-hum05 [11]): 0.273
- OD450 at 11.111 ng/well hepcidin (BAP070-hum05 [11]): 0.125
- OD450 at 33.333 ng/well hepcidin (BAP070-hum05 [11]): 0.0505
- OD450 at 100.000 ng/well hepcidin (BAP070-hum05 [11]): 0.0195
- EC50 [12]: 0.0174 µg/mL
- EC50 (BAP070-hum01 [13]): 0.0237 µg/mL
- EC50 (BAP070-hum02 [14]): 0.0179 µg/mL
- EC50 (BAP070-hum03 [15]): 0.0205 µg/mL
- EC50 (BAP070-hum04 [16]): 0.0191 µg/mL
- EC50 (BAP070-hum05 [17]): 0.0188 µg/mL
- EC50 (BAP070-hum06 [18]): 0.0186 µg/mL
B1: Human hepcidin peptide (hepcidin-25) (peptide)
peptide: DTHFPICIFCCGCCHRSKCGMCCKT
notes: Synthetic 25 aa peptide; also called hep-25; Hep-25
